Results from the supplement of paper PMC9112550, “Optimization of the antimicrobial peptide Bac7 by deep mutational scanning” (BMC Biology, 2022).

These sequences were tested on Escherichia coli TOP10 (assay: shrunken log2 fold change of peptide-encoding DNA abundance (4.5 h post-induction vs induction); higher = less antimicrobial activity (less host growth inhibition)). Settings: time post-induction: 4.5 h; library: site-saturation at positions 5, 18, 19, 20.
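Note: peptides expressed intracellularly from a pBAD plasmid library in pooled LB shake-flask culture, induced with 0.3% L-arabinose, DNA abundance read by NGS, three biological replicates, DESeq2 with apeglm shrinkage.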

Sequence | shrunken log2 fold change
RRIRARPPRLPRPRPRPADNPRP | 0.383
RRIRGRPPRLPRPRPRPRGNPRP | 0.995
RRIRDRPPRLPRPRPRPADYPRP | -0.0418
RRIRCRPPRLPRPRPRPVDQPRP | -0.304
RRIRWRPPRLPRPRPRPDHPPRP | -0.0785
RRIRNRPPRLPRPRPRPLYRPRP | -0.332
RRIRERPPRLPRPRPRPLWCPRP | -0.0233
RRIRHRPPRLPRPRPRPITDPRP | -0.229
RRIRDRPPRLPRPRPRPPVQPRP | 0.104
RRIRERPPRLPRPRPRPFTQPRP | -0.299
RRIRERPPRLPRPRPRPRAFPRP | 0.189
RRIRGRPPRLPRPRPRPKAIPRP | 0.363
RRIRTRPPRLPRPRPRPKTMPRP | -0.0972
RRIRTRPPRLPRPRPRPPEGPRP | 0.308
RRIRMRPPRLPRPRPRPRQTPRP | 0.0189
RRIRIRPPRLPRPRPRPHRHPRP | -0.364
RRIRTRPPRLPRPRPRPRPYPRP | -0.223
RRIRKRPPRLPRPRPRPSCIPRP | -0.0677
RRIRWRPPRLPRPRPRPRWFPRP | 0.999
RRIRIRPPRLPRPRPRPGEFPRP | -0.0994
RRIRGRPPRLPRPRPRPYGEPRP | 0.398
RRIRVRPPRLPRPRPRPGMKPRP | -1.14
RRIRPRPPRLPRPRPRPNNFPRP | -0.364
RRIRSRPPRLPRPRPRPFNIPRP | -0.109
RRIRRRPPRLPRPRPRPTAIPRP | 0.211

Sequence | shrunken log2 fold change
RRIRIRPPRLPRPRPRPFNEPRP | -0.331
RRIRLRPPRLPRPRPRPLLGPRP | 0.0797
RRIRGRPPRLPRPRPRPDIYPRP | 1.05
RRIRSRPPRLPRPRPRPFMNPRP | -0.147
RRIRKRPPRLPRPRPRPFCKPRP | 0.326
RRIRNRPPRLPRPRPRPPRFPRP | 0.441
RRIRRRPPRLPRPRPRPDSFPRP | -0.0228
RRIRPRPPRLPRPRPRPFFFPRP | 0.279
RRIRNRPPRLPRPRPRPNNKPRP | -0.63
RRIRMRPPRLPRPRPRPKCCPRP | 0.26
RRIRYRPPRLPRPRPRPAHAPRP | 0.154
RRIRARPPRLPRPRPRPCFHPRP | -0.0446
RRIRTRPPRLPRPRPRPFTVPRP | -0.00127
RRIRERPPRLPRPRPRPAKIPRP | 0.039
RRIRNRPPRLPRPRPRPYMFPRP | -0.216
RRIRMRPPRLPRPRPRPAWLPRP | 0.818
RRIRHRPPRLPRPRPRPDINPRP | -0.0579
RRIRCRPPRLPRPRPRPILCPRP | 2.87
RRIRCRPPRLPRPRPRPTKVPRP | -0.413
RRIRIRPPRLPRPRPRPSQGPRP | -0.0729
RRIRYRPPRLPRPRPRPTHDPRP | 0.032
RRIRPRPPRLPRPRPRPQWCPRP | -0.0525
RRIRIRPPRLPRPRPRPHDDPRP | -0.177
RRIRGRPPRLPRPRPRPLFQPRP | 0.266
RRIRGRPPRLPRPRPRPQDMPRP | 0.0811

Sequence | shrunken log2 fold change
RRIRVRPPRLPRPRPRPQPYPRP | -0.486
RRIRNRPPRLPRPRPRPEMCPRP | 0.00911
RRIRERPPRLPRPRPRPPFRPRP | 0.173
RRIRERPPRLPRPRPRPTPDPRP | 0.116
RRIRQRPPRLPRPRPRPNHSPRP | -0.762
RRIRPRPPRLPRPRPRPHSYPRP | 0.0057
RRIRLRPPRLPRPRPRPARGPRP | 0.565
RRIRDRPPRLPRPRPRPVATPRP | 0.814
RRIRFRPPRLPRPRPRPSNTPRP | -0.422
RRIRVRPPRLPRPRPRPQKAPRP | -0.0576
RRIRWRPPRLPRPRPRPDKQPRP | 0.0432
RRIRLRPPRLPRPRPRPYQGPRP | -0.388
RRIRGRPPRLPRPRPRPLWSPRP | 0.117
RRIRQRPPRLPRPRPRPWSVPRP | -0.0201
RRIRIRPPRLPRPRPRPDWCPRP | -0.149
RRIRHRPPRLPRPRPRPIRNPRP | -0.387
RRIRFRPPRLPRPRPRPCNMPRP | -1.46
RRIRKRPPRLPRPRPRPEWLPRP | 0.576
RRIRCRPPRLPRPRPRPWSNPRP | 0.00372
RRIRMRPPRLPRPRPRPRSAPRP | 1.36
RRIRMRPPRLPRPRPRPPCTPRP | 0.738
RRIRARPPRLPRPRPRPSESPRP | 0.0591
RRIRHRPPRLPRPRPRPQHLPRP | -0.358
RRIRKRPPRLPRPRPRPVFMPRP | 0.138
RRIRNRPPRLPRPRPRPDQYPRP | -0.337

Sequence | shrunken log2 fold change
RRIRIRPPRLPRPRPRPDHFPRP | -0.0602
RRIRFRPPRLPRPRPRPHLSPRP | -0.219
RRIRFRPPRLPRPRPRPIQRPRP | -0.107
RRIRSRPPRLPRPRPRPETAPRP | 0.667
RRIRWRPPRLPRPRPRPWYMPRP | -0.885
RRIRHRPPRLPRPRPRPLQYPRP | -0.582
RRIRHRPPRLPRPRPRPHEKPRP | -0.00373
RRIRDRPPRLPRPRPRPAMFPRP | -0.228
RRIRMRPPRLPRPRPRPLDLPRP | 0.062
RRIRLRPPRLPRPRPRPVLSPRP | -0.0937
RRIRRRPPRLPRPRPRPESKPRP | 0.265
RRIRQRPPRLPRPRPRPDKLPRP | -0.522
RRIRGRPPRLPRPRPRPMKMPRP | 0.00988
RRIRARPPRLPRPRPRPSTWPRP | -0.0645
RRIRWRPPRLPRPRPRPAGIPRP | 0.186
RRIRNRPPRLPRPRPRPPVAPRP | 0.239
RRIRDRPPRLPRPRPRPNGIPRP | 0.012
RRIRLRPPRLPRPRPRPPNHPRP | -0.246
RRIRGRPPRLPRPRPRPGIQPRP | 0.591
RRIRYRPPRLPRPRPRPFVHPRP | -1.49
RRIRKRPPRLPRPRPRPQMQPRP | 0.134
RRIRERPPRLPRPRPRPSLQPRP | 0.175
RRIRNRPPRLPRPRPRPKSWPRP | 0.432
RRIRHRPPRLPRPRPRPHSPPRP | -0.468
RRIRCRPPRLPRPRPRPGSLPRP | 0.0481

Sequence | shrunken log2 fold change
RRIRVRPPRLPRPRPRPIKRPRP | 0.048
RRIRNRPPRLPRPRPRPAVMPRP | -0.0474
RRIRRRPPRLPRPRPRPADRPRP | 0.00311
RRIRVRPPRLPRPRPRPGTRPRP | -0.0152
RRIRKRPPRLPRPRPRPMLCPRP | -0.0829
RRIRARPPRLPRPRPRPKMDPRP | 0.384
RRIRARPPRLPRPRPRPGFDPRP | 0.719
RRIRVRPPRLPRPRPRPMTMPRP | -0.0831
RRIRYRPPRLPRPRPRPCHKPRP | -0.821
RRIRDRPPRLPRPRPRPNGKPRP | -0.181
RRIRQRPPRLPRPRPRPNSRPRP | -0.0312
RRIRCRPPRLPRPRPRPFDSPRP | -0.00174
RRIRDRPPRLPRPRPRPAQCPRP | 0.0665
RRIRHRPPRLPRPRPRPWTGPRP | -0.104
RRIRCRPPRLPRPRPRPHGKPRP | -0.15
RRIRARPPRLPRPRPRPQPIPRP | 0.16
RRIRCRPPRLPRPRPRPCPVPRP | -0.28
RRIRERPPRLPRPRPRPYPWPRP | -0.706
RRIRHRPPRLPRPRPRPGYHPRP | -0.126
RRIRTRPPRLPRPRPRPTIKPRP | -0.051
RRIRERPPRLPRPRPRPPMTPRP | -0.163
RRIRVRPPRLPRPRPRPHNQPRP | -0.471
RRIRLRPPRLPRPRPRPSKDPRP | -0.364
RRIRIRPPRLPRPRPRPLAYPRP | -0.132
RRIRIRPPRLPRPRPRPAMQPRP | 0.0843

Sequence | shrunken log2 fold change
RRIRWRPPRLPRPRPRPADNPRP | 0.212
RRIRYRPPRLPRPRPRPTKPPRP | -0.013
RRIRLRPPRLPRPRPRPTACPRP | -0.0054
RRIRDRPPRLPRPRPRPVTAPRP | 0.157
RRIRTRPPRLPRPRPRPDPQPRP | -0.0945
RRIRQRPPRLPRPRPRPPKSPRP | 0.18
RRIRSRPPRLPRPRPRPHFPPRP | -0.397
RRIRGRPPRLPRPRPRPDIWPRP | 0.598
RRIRSRPPRLPRPRPRPTVNPRP | -0.477
RRIRSRPPRLPRPRPRPYHGPRP | -0.397
RRIRVRPPRLPRPRPRPFCWPRP | 0.163
RRIRKRPPRLPRPRPRPSGTPRP | 0.113
RRIRGRPPRLPRPRPRPGSTPRP | 0.75
RRIRYRPPRLPRPRPRPQWMPRP | -0.19
RRIRNRPPRLPRPRPRPLFNPRP | -0.777
RRIRMRPPRLPRPRPRPIHNPRP | -0.58
RRIRHRPPRLPRPRPRPVSWPRP | 0.442
RRIRVRPPRLPRPRPRPQNDPRP | -0.292
RRIRIRPPRLPRPRPRPNSDPRP | -0.267
RRIRERPPRLPRPRPRPWSWPRP | 0.103
RRIRKRPPRLPRPRPRPFWSPRP | -0.00917
RRIRIRPPRLPRPRPRPGHNPRP | -0.0704
RRIRFRPPRLPRPRPRPIENPRP | -0.193
RRIRQRPPRLPRPRPRPGHLPRP | -0.0699
RRIRKRPPRLPRPRPRPTEYPRP | 0.0661
